Reference: US20220002427A1 (ENGMAB SARL, published 2022)
Values joined by “and” are separate entries in the source; they are usually repeats but may differ in a detail not shown here. Equal entries are not always repeated.

Assays:
[1] = target: T1, human BCMA on cells (human, UniProt Q02223 1-184); assay: flow cytometry on HEK-huBCMA cells, PE anti-human Fc detection
T1 construct: whole, on cells; also called huBCMA on HEK cells; HEK-huBCMA cells
T1 sequence (looked up): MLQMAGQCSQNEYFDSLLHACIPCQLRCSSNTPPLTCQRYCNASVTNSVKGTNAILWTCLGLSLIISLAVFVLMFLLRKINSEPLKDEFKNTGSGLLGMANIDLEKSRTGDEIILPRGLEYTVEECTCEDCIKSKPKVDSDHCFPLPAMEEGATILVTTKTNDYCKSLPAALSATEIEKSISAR

[2] = target: T2, recombinant cynomolgus BCMA Fc(kih) (cynomolgus, UniProt A0A2K5UD97 4-51); assay: ratio of SPR KD values (KD cynomolgus BCMA / KD human BCMA), reference human BCMA Fc(kih)
T2 sequence (A0A2K5UD97 entry or part of it): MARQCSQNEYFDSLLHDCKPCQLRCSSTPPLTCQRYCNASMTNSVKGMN
Protocol: (§1) The avidity of the interaction between anti-BCMA antibodies and recombinant BCMA Fc(kih) (human and cynomolgus) was determined. Biotinylated recombinant human and cynomolgus BCMA Fc(kih) were directly coupled on a SA chip following instructions (Biacore, Freiburg/Germany). The immobilization level ranged from 200 to 700 RU. […] The dissociation was monitored for 180 seconds. Bulk refractive index differences were corrected for by subtracting the response obtained on the reference flow cell. Here, the anti-BCMA antibodies were flown over an empty surface previously activated and deactivated as described in the standard amine coupling kit. Apparent kinetic constants were derived using the Biacore T200 Evaluation Software (vAA, Biacore AB, Uppsala/Sweden), to fit rate equations for 1:1 Langmuir binding by numerical integration, despite the bivalency of the interaction for comparison purposes. The affinity of the interaction between anti-BCMA antibodies and recombinant human BCMA Fc(kih) was also determined. Anti-human Fab antibody (GE Healthcare) was directly coupled on a CMS chip at pH 5.0 using the standard amine coupling kit (Biacore, Freiburg/Germany). The immobilization level was about 6500 RU. […] The dissociation was monitored for 120 seconds. Bulk refractive index differences were corrected for by subtracting the response obtained on reference flow cell. […] Kinetic constants were derived using the Biacore T100 Evaluation Software (vAA, Biacore AB, Uppsala/Sweden), to fit rate equations for 1:1 Langmuir binding by numerical integration (Table 4).
Based on the affinity values described in Example 2, the affinity of anti-BCMA antibodies to human BCMA vs. cynomolgus BCMA were compared and cyno/hu affinity ratio (gap) values were calculated (Table 5).

[3] = target: T2, recombinant cynomolgus BCMA Fc(kih); assay: SPR (Biacore T200), IgG captured via anti-human Fab, BCMA Fc(kih) as analyte, 1:1 Langmuir fit
Protocol: as §1, with “Assessment of binding of anti-BCMA antibodies to recombinant BCMA by surface plasmon resonance (SPR) as follow. […] The avidity” for “The avidity”

[4] = target: T3, recombinant human BCMA Fc(kih) (human, UniProt Q02223 4-53, site-specifically biotinylated at the C-terminal avi-tag ; Biotin on the avi-tag at the C-terminus of the Fc knob chain (tag and Fc left out).); assay: as above
T3 construct: Knobs-into-holes heterodimer carrying one BCMA ectodomain; also called huBCMA Fc(kih); huBCMA; not shown: human IgG1 hinge-Fc knob chain with C-terminal avi-tag, and the unfused Fc hole chain
T3 chain: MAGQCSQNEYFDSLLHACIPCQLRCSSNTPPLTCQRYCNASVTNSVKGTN
Protocol: as §1, with “Assessment of binding of anti-BCMA antibodies to recombinant BCMA by surface plasmon resonance (SPR) as follow. […] The avidity” for “The avidity”

[5] = target: T2, recombinant cynomolgus BCMA Fc(kih); assay: SPR one-shot kinetics (ProteOn XPR36), IgG captured from HEK293 supernatant via anti-human F(ab)2, BCMA as analyte
Protocol: (§2) All experiments were performed at 25° C. using PBST as running buffer (10 mM PBS, pH 7.4 and 0.005% (v/v) Tween®20). A ProteOn XPR36 biosensor equipped with GLC and GLM sensor chips and coupling reagents (10 mM sodium acetate, pH 4.5, sulfo-N-hydroxysuccinimide, 1-ethyl-3-(3-dimethylaminopropyl)-carbodiimide hydrochloride [EDC] and ethanolamine) was purchased from BioRad Inc. (Hercules, Calif.). Immobilizations were performed at 30 μl/min. on a GLM chip. pAb (goat) anti hu IgG, F(ab)2 specific Ab (Jackson) was coupled in vertical direction using a standard amine-coupling procedure: all six ligand channels were activated for 5 min with a mixture of EDC (200 mM) and sulfo-NHS (50 mM). Immediately after the surfaces were activated, pAb (goat) anti hu IgG, F(ab)2 specific antibody (50 μg/ml, 10 mM sodium acetate, pH 5) was injected across all six channels for 5 min. Finally, channels were blocked with a 5 min injection of 1 M ethanolamine-HCl (pH 8.5). […] One-shot kinetic measurements were performed by injection of a dilution series of human, cyno and mouse BCMA (50, 10, 2, 0.4, 0.08, 0 nM, 50 μl/min) for 3 min along the vertical channels. Dissociation was monitored for 5 min Kinetic data were analyzed in ProteOn Manager v. 2.1. Processing of the reaction spot data involved applying an interspot-reference and a double-reference step using an inline buffer blank (Myszka, 1999). The processed data from replicate one-shot injections were fit to a simple 1:1 Langmuir binding model without mass transport (O'Shannessy et al., 1993).

[6] = target: T3, recombinant human BCMA Fc(kih); assay: as above
Protocol: as §2

[7] = target: T4, murine BCMA extracellular domain, monomeric Fc-fusion (murine, UniProt O88472 1-49, site-specifically biotinylated at the C-terminal avi-tag); assay: as above
T4 construct: extracellular domain; also called muBCMA; mouse BCMA; not shown: hinge and Fc of human IgG1, knob chain; avi-tag; unfused human IgG1 Fc portion (hole chain)
T4 sequence (O88472 whole entry, the tested form may be a part): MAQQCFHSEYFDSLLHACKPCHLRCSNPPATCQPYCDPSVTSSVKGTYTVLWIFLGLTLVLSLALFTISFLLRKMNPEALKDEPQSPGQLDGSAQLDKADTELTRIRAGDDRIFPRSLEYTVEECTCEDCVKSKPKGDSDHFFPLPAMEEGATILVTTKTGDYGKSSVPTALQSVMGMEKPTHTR
Protocol: as §2

B1: Mab 21 IgG (antibody, V domains shown)
VH: EVQLLESGGGLVQPGGSLRLSCAASGFTFSDNAMGWVRQAPGKGLEWVSAISGPGSSTYYADSVKGRFTISRDNSKNTLYLQMNSLRAEDTAVYYCAKVLGWFDYWGQGTLVTVSS
VL: EIVLTQSPGTLSLSPGERATLSCRASQSVSEYYLAWYQQKPGQAPRLLIEHASTRATGIPDRFSGSGSGTDFTLTISRLEPEDFAVYYCQQYGYPPDFTFGQGTKVEIK
notes: also called antibody 21
EC50 [1]: 2.46 nM and 0.35 µg/mL | Affinity cyno/hu gap [2]: 9.3 fold | Kd [3]: 0.478 nM | koff [3]: 0.000235 s⁻¹ | kon [3]: 491000 M⁻¹ s⁻¹ | Kd [4]: 0.0516 nM | koff [4]: 4.39e-05 s⁻¹ | kon [4]: 851000 M⁻¹ s⁻¹ | Kd [5]: 0.051 nM | Kd [6]: 0.028 nM | Kd [7]: 0.73 nM

B2: Mab 14 (antibody, V domains shown)
VH: EVQLLESGGGLVQPGGSLRLSCAASGFTFYTNAMGWVRQAPGKGLEWVSAINRFGGSTYYADSVKGRFTISRDNSKNTLYLQMNSLRAEDTAVYYCAKVLGWFDYWGQGTLVTVSS
VL: EIVLTQSPGTLSLSPGERATLSCRASQSVSDEYLSWYQQKPGQAPRLLIHSASTRATGIPDRFSGSGSGTDFTLAISRLEPEDFAVYYCQQYGYPPDFTFGQGTKVEIK
notes: IgG variant (VH/VL combination)
EC50 [1]: 1.47 nM and 0.21 µg/mL

B3: Mab 44 (antibody, V domains shown)
VH: EVQLLESGGGLVQPGGSLRLSCAASGFTFSSAPMGWVRQAPGKGLEWVSAISYIGHTYYADSVKGRFTISRDNSKNTLYLQMNSLRAEDTAVYYCAKVLGWFDYWGQGTLVTVSS
VL: EIVLTQSPGTLSLSPGERATLSCRASQSVSDEYLSWYQQKPGQAPRLLIHSASTRATGIPDRFSGSGSGTDFTLAISRLEPEDFAVYYCQQYGYPPDFTFGQGTKVEIK
notes: IgG variant
EC50 [1]: 1.55 nM and 0.22 µg/mL

B4: Mab 39 IgG (antibody, V domains shown)
VH: EVQLLESGGGLVQPGGSLRLSCAASGFTFTQNAMGWVRQAPGKGLEWVSAISPTGFSTYYADSVKGRFTISRDNSKNTLYLQMNSLRAEDTAVYYCAKVLGWFDYWGQGTLVTVSS
VL: EIVLTQSPGTLSLSPGERATLSCRASQSVSEYYLAWYQQKPGQAPRLLIEHASTRATGIPDRFSGSGSGTDFTLTISRLEPEDFAVYYCQQYGYPPDFTFGQGTKVEIK
EC50 [1]: 1.73 nM and 0.25 µg/mL | Affinity cyno/hu gap [2]: 14 fold | Kd [3]: 2.17 nM | koff [3]: 0.000467 s⁻¹ | kon [3]: 215000 M⁻¹ s⁻¹ | Kd [4]: 0.155 nM | koff [4]: 5.58e-05 s⁻¹ | kon [4]: 361000 M⁻¹ s⁻¹ | Kd [5]: 0.27 nM | Kd [6]: 0.062 nM

B5: Mab 22 IgG (antibody, V domains shown)
VH: EVQLLESGGGLVQPGGSLRLSCAASGFTFSDNAMGWVRQAPGKGLEWVSAISGPGSSTYYADSVKGRFTISRDNSKNTLYLQMNSLRAEDTAVYYCAKVLGWFDYWGQGTLVTVSS
VL: EIVLTQSPGTLSLSPGERATLSCRASQSVSSYYLAWYQQKPGQAPRLLISGAGSRATGIPDRFSGSGSGTDFTLTISRLEPEDFAVYYCQQYGYPPDFTFGQGTKVEIK
notes: also called antibody 22; clone 22
EC50 [1]: 2.08 nM and 0.3 µg/mL | Affinity cyno/hu gap [2]: 15.4 fold | Kd [3]: 0.974 nM | koff [3]: 0.000442 s⁻¹ | kon [3]: 454000 M⁻¹ s⁻¹ | Kd [4]: 0.0633 nM | koff [4]: 5.15e-05 s⁻¹ | kon [4]: 814000 M⁻¹ s⁻¹ | Kd [6]: 0.048 nM | Kd [7]: 0.9 nM

B6: Mab 34 (antibody, V domains shown)
VH: EVQLLESGGGLVQPGGSLRLSCAASGFTFYTNAMGWVRQAPGKGLEWVSAINRFGGSTYYADSVKGRFTISRDNSKNTLYLQMNSLRAEDTAVYYCAKVLGWFDYWGQGTLVTVSS
VL: EIVLTQSPGTLSLSPGERATLSCRASQSVSSYYLAWYQQKPGQAPRLLISGAGSRATGIPDRFSGSGSGTDFTLTISRLEPEDFAVYYCQQYGYPPDFTFGQGTKVEIK
notes: IgG variant
EC50 [1]: 1.24 nM and 0.18 µg/mL

B7: Mab 33 IgG (antibody, V domains shown)
VH: EVQLLESGGGLVQPGGSLRLSCAASGFTFYTNAMGWVRQAPGKGLEWVSAINRFGGSTYYADSVKGRFTISRDNSKNTLYLQMNSLRAEDTAVYYCAKVLGWFDYWGQGTLVTVSS
VL: EIVLTQSPGTLSLSPGERATLSCRASQSVSEYYLAWYQQKPGQAPRLLIEHASTRATGIPDRFSGSGSGTDFTLTISRLEPEDFAVYYCQQYGYPPDFTFGQGTKVEIK
EC50 [1]: 1.18 nM and 0.17 µg/mL | Affinity cyno/hu gap [2]: 4.2 fold | Kd [3]: 0.739 nM | koff [3]: 9.76e-05 s⁻¹ | kon [3]: 132000 M⁻¹ s⁻¹ | Kd [4]: 0.178 nM | koff [4]: 3.55e-05 s⁻¹ | kon [4]: 200000 M⁻¹ s⁻¹ | Kd [5]: 0.034 nM | Kd [6]: 0.017 nM | Kd [7]: 0.49 nM

B8: Mab 28 (antibody, V domains shown)
VH: EVQLLESGGGLVQPGGSLRLSCAASGFTFSSAPMGWVRQAPGKGLEWVSAISYIGHTYYADSVKGRFTISRDNSKNTLYLQMNSLRAEDTAVYYCAKVLGWFDYWGQGTLVTVSS
VL: EIVLTQSPGTLSLSPGERATLSCRASQSVSSYYLAWYQQKPGQAPRLLISGAGSRATGIPDRFSGSGSGTDFTLTISRLEPEDFAVYYCQQYGYPPDFTFGQGTKVEIK
notes: IgG variant
EC50 [1]: 11.3 nM and 1.63 µg/mL
